Measured values reported in patent US20150037348A1 (AbbVie / Abbott, published 2015).
Where “and” joins values, the source holds several entries; their conditions need not be identical. Equal values may be shown once.

T1: dog IL-12 (PBMC supernatant) (dog, UniProt Q28267 26-222; Q28268 23-329)
T1 sequence (looked up) 1: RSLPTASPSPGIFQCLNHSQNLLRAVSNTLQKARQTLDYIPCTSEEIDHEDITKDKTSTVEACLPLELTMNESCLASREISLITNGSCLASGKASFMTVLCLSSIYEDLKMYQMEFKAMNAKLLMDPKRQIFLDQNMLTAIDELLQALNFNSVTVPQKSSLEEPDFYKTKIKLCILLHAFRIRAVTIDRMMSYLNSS
T1 sequence (looked up) 2: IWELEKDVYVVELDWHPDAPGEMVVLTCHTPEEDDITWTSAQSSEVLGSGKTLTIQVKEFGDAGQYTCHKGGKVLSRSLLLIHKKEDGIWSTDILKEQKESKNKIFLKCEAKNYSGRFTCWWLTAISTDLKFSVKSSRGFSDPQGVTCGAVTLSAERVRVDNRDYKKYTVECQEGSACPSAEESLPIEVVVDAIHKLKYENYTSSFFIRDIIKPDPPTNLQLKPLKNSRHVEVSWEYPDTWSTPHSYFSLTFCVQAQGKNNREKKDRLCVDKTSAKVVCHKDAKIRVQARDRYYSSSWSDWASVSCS

T2: recombinant rhesus IL-12 (rhesus monkey, UniProt P48091 23-219; P48095 23-328)
T2 sequence (looked up) 1: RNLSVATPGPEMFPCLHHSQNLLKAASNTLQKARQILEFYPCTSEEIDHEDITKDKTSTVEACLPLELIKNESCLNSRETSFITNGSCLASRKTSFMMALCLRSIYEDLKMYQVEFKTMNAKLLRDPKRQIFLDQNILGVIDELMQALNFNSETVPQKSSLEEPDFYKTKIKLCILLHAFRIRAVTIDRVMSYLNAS
T2 sequence (looked up) 2: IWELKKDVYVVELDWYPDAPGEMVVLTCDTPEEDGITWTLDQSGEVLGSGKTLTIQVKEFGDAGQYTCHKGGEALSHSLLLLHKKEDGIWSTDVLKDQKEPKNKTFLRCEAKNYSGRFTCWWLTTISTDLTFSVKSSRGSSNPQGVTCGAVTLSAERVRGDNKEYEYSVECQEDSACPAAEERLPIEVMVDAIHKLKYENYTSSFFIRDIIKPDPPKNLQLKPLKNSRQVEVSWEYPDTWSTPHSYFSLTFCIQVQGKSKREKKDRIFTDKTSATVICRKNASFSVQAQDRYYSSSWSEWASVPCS

T3: cynomolgus IL-12 (PBMC supernatant) (cynomolgus monkey)
T3 chain 1: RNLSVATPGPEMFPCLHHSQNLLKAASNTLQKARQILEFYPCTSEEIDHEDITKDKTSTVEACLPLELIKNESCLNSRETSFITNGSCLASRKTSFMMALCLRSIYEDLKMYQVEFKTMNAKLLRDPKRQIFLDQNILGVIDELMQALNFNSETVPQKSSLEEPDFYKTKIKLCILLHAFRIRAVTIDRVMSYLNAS
T3 chain 2: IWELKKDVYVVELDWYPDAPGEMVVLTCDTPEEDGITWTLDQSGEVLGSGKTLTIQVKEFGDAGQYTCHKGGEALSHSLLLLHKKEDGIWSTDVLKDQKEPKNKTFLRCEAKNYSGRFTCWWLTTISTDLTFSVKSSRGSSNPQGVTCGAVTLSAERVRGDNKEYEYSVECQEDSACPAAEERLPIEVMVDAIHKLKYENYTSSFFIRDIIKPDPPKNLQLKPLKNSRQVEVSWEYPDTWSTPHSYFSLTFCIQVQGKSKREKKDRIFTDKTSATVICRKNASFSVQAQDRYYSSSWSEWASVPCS

T4: baboon IL-12 (PBMC supernatant) (baboon)
T4 chain 1: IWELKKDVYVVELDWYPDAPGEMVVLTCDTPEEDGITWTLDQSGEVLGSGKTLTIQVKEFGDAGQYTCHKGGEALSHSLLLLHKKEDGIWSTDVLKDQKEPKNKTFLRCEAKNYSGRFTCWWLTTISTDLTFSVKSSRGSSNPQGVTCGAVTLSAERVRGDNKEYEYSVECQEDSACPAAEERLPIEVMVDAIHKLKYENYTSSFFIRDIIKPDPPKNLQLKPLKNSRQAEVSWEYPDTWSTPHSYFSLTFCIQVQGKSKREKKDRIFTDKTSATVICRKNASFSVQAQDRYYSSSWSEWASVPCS
T4 chain 2: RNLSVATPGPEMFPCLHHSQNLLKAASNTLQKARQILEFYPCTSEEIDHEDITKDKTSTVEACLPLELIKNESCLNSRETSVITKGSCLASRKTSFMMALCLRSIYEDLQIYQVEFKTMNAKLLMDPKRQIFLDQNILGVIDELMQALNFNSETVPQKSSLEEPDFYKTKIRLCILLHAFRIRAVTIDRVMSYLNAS

T5: recombinant human IL-12 (rhIL-12) (human, UniProt P29459 23-219; P29460 23-328)
T5 sequence (looked up) 1: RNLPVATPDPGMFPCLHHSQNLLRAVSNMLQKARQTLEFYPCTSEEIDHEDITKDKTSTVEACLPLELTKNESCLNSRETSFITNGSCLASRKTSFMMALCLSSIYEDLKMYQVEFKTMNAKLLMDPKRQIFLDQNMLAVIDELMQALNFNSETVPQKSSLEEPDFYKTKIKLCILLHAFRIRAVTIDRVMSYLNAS
T5 sequence (looked up) 2: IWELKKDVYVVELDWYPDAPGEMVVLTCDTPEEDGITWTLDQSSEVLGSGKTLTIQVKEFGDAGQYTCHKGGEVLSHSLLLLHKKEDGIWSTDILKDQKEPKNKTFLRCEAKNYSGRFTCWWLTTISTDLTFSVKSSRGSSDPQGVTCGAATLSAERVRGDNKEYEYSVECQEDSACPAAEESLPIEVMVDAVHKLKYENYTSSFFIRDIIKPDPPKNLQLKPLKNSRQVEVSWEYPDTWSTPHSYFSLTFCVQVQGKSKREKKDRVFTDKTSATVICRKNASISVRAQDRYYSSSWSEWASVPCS

T6: chimeric IL-12 (murine p35 subunit with the human IL-12 p40 subunit) (mouse; human, UniProt P43431 23-215; P29460 23-328)
T6 sequence (looked up) 1: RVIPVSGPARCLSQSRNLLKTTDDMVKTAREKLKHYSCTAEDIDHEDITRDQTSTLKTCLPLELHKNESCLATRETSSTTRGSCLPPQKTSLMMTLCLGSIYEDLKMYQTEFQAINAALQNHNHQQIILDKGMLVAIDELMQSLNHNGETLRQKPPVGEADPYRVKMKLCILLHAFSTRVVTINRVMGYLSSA
T6 sequence (looked up) 2: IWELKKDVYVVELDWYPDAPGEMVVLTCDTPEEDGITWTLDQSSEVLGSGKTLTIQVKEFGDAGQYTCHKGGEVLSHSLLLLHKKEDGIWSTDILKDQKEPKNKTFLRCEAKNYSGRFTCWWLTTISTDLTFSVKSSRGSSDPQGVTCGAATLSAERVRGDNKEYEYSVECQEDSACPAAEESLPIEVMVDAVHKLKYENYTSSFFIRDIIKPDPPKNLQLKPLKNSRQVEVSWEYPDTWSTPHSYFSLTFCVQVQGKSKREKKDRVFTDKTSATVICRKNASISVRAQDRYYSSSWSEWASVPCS

B1: J695 (antibody, human IgG1, V domains shown)
VH: QVQLVESGGGVVQPGRSLRLSCAASGFTFSSYGMHWVRQAPGKGLEWVAFIRYDGSNKYYADSVKGRFTISRDNSKNTLYLQMNSLRAEDTAVYYCKTHGSHDNWGQGTMVTVSS
VL: QSVLTQPPSVSGAPGQRVTISCSGSRSNIGSNTVKWYQQLPGTAPKLLIYYNDQRPSGVPDRFSGSKSGTSASLAITGLQAEDEADYYCQSYDRYTHPALLFGTGTKVTVLG
notes: human IgG1 with lambda light chain
B2: J695 (antibody, V domains shown)
VH: QVQLVESGGGVVQPGRSLRLSCAASGFTFSSYGMHWVRQAPGKGLEWVAFIRYDGSNKYYADSVKGRFTISRDNSKNTLYLQMNSLRAEDTAVYYCKTHGSHDNWGQGTMVTVSS
VL: QSVLTQPPSVSGAPGQRVTISCSGSRSNIGSNTVKWYQQLPGTAPKLLIYYNDQRPSGVPDRFSGSKSGTSASLAITGLQAEDEADYYCQSYDRYTHPALLFGTGTKVTVLG
notes: Human IgG1 with lambda light chain (detected with anti-human lambda); Made in CHO or COS cells

Key:
[1] = target: T1, dog IL-12 (PBMC supernatant); test: cell-based or functional assay
[2] = target: T2, recombinant rhesus IL-12; test: cell-based or functional assay
[3] = target: T3, cynomolgus IL-12 (PBMC supernatant); test: cell-based or functional assay
[4] = target: T4, baboon IL-12 (PBMC supernatant); test: cell-based or functional assay
[5] = target: T5, recombinant human IL-12 (rhIL-12); test: cell-based or functional assay
[6] = target: T5, recombinant human IL-12 (rhIL-12); test: cell-based or functional assay; remark: listed apart in the source
[7] = target: T5, recombinant human IL-12 (rhIL-12); test: cell-based or functional assay; remark: listed apart in the source
[8] = target: T6, chimeric IL-12 (murine p35 subunit with …); test: inhibition of IFN-γ production in mice given chimeric IL-12
Protocol: The control hulgG1γ was given IP. at a dose of 0.05 mg/kg on days 0, 2, and 4. The mice were bled on day 5, and serum IFN-γ levels were determined by ELISA.

Binder	IC50 (M), bioassay, Dog IL-12 PBMC sup [1]	IC50 (M), bioassay, Rhesus IL-12 Purified [2]	IC50 (M), bioassay, Cyno IL-12 PBMC sup [3]	IC50 (M), bioassay, Baboon IL-12 PBMC sup [4]	IC50 (M), bioassay, Human IL-12 Purified [5]	IFN-γ Assay IC50 [6]	PHA blast Assay IC50 [6]	IFN gamma IC50 [7]	PHA assay IC50 [7]	binding result [8]
B1	3.5e-10 M	1e-11 M	1e-11 M	1.5e-11 M	5e-12 M	5.8 pM and 4.3 pM	5.5 pM and 4.4 pM	5 pM	10 pM	–
B2	–	–	–	–	–	–	–	–	–	binds
